From the supplement of paper PMC10567573

B1: CDC25A (parent)
chain: KKFRTKSRTWAGEKSKREMYSRLK
B2: PTPLAD1 (parent)
chain: YINFRHLYKQRRRRYGQKKKKIH

Variants of: B1
Assay: protein stability index of a GFP-peptide fusion (GPS, HEK-293T) (PSI 1-6); higher = more stable
Conditions: c terminus: a fixed tail appended
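Note: lentivirally expressed fusions sorted by FACS into six bins by GFP to DsRed ratio, PSI derived from sequencing read proportions per bin multiplied by bin number.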

Protein stability index: each site, then its substitutions
T9: C 3.12; F 3.17; A 2.79; D 3.54; H 2.29
S7: F 2.4; P 3.13; R 3.57; Q 2.39; C 2.39; G 2.78; N 3.17; H 3.51; D 3.24; A 3.3; W 3.06; M 2.42; I 2.9; V 2.01; E 2.92; K 3.11
K1: T 4.1; W 2.37; D 3.83; N 2.7; R 3.04; V 2.65; I 1.89; Q 3.35; F 2.37; A 3.59; P 3.25; L 1.95; Y 2.71; E 3.74; S 3.22
K6: Q 2.58; I 2.01; V 2.42; Y 2.92; S 2.32; C 2.71; D 3.57; F 2.37; T 2.81; M 2.91; A 1.88; L 2.36; N 2.92; P 2.93; H 3.44; G 3.23
K2: H 1.93; E 3.27; C 2.38; Y 3.09; W 2.63; D 3.22; I 2.38; G 4.12; S 3.06; M 1.76; P 2.6
T5: P 2.39; K 3.12; S 3.71; R 3.06; C 2.87; E 3.37; N 3.56; H 2.81; M 2.62; W 3.02; Q 3.23; F 3.25; I 2.5; A 2.15; V 3.85; Y 3.24; G 3.33
F3: S 3.48; L 3.49; C 3.22; R 3.51; G 3.49; Y 3; P 2.85; W 3.48; I 3.06; T 3.59; N 3.12; H 3.1; M 3.61; K 3.16; A 3.28
R8: Q 3.37; H 2.84; F 2.88; E 4.16; A 3.48; L 3.86; W 4.2; P 3.21; T 2.95; K 3.31; Y 4.25; I 3.39; V 3.32; N 3.38; S 2.7; M 2.25; D 3.57
R4: W 2.71; C 3.02; T 3.37; F 2.71; I 2.3; M 3.46; G 2.5; H 3.6; D 3.04; V 3.79; P 3.09; E 3.76; S 2.42; A 2.6; Q 3.86; N 3.2; Y 3.63; L 2.47; K 3.18

Variants of: B2
Assay: as above
Conditions: c terminus: native

Protein stability index of substitutions, site by site:
Q17: E 2.55; D 2.23; R 2.59; P 1.46; G 2.25; V 1.89; L 2.07; M 1.73; T 2.54; W 1.63; C 1.48; F 2.3; H 1.72; A 2.66; K 1.76; Y 1.7; N 4
Y15: V 2.14; W 2.59; H 1.72; N 1.11; A 2.12; R 2.85; L 2; D 2.48; T 1.69; G 2.14; I 2.11; M 1.37; E 4.57; F 1.53; K 2.33; C 2.22; Q 1.88; S 1.74
K19: P 1.95; Q 2.09; L 3.09; R 1.91; F 2.25; H 2.49; Y 2.12; M 2.31; W 2.02; N 1.62; A 2.04; S 2.07; D 2.66; T 1.96; E 1.57; G 2.15; I 2.54
R11: T 2.02; S 2.3; Y 2.61
K21: P 1.99; W 2.37; H 1.94; F 2.76; S 2.33; M 2.3; T 2.7; R 2.49; N 2.27; D 1.33; C 2.5; Q 1.39; Y 1.35; I 2.14; G 2.96; V 1.6; L 1.92
K18: C 2.62; G 1.91; M 1.78; W 2.22; T 2.19; R 1.97; L 2.42; Y 2.39; N 1.96; E 2.17; P 1.52; S 1.65; F 2.46; D 2.44; Q 1.56; I 2.86; V 2.29; A 2.15
R12: K 1.91; C 1.55; I 2.44; F 1.62; L 1.25; Q 2.26; H 1.93; E 1.58; P 1.96; S 2.18; N 2.05; A 1.44; W 2.15; M 2.44; Y 2.01; T 3.06; D 2.24; G 2.92; V 3.11
H23: P 2.07; W 2.25; F 1.11; T 3.73; K 1.58; D 2.09; E 1.04; V 2.58; S 1.48; C 1.05
I22: A 2.02; L 2.67; H 2.13; W 2.22; F 1.72; P 1.86; G 1.5; C 1.86; E 2.66; V 1.41; T 2.1; M 2.23; S 2.33; N 1.9; D 2.56; Q 2.44; Y 2.08; R 1.81
R14: K 2.22; I 1.6; Y 1.78; E 1.78; L 2.34; H 1.96; F 2.16; T 1.22; A 2.57; G 2.47; N 2.15; P 2.05; S 1.85; V 2.14
K20: D 3.01; G 2.77; E 1.66; A 2.05; W 1.91; R 1.82; F 1.71; Q 1.46; M 1.88; I 2.92; N 1.89; S 1.69; Y 3.24; T 1.99; P 2; C 1.83; H 2.35
G16: K 2.57; P 1.66; N 1.4; M 2.27; C 2.27; W 2.76; L 2.23; S 2.71; V 2.44; A 2.54; I 2.21; Y 1.25; D 2.6; H 1.35; Q 1.56; E 1.85; T 2.88; R 1.74; F 1.6
R13: Y 2.28; T 1.75; L 2.3; E 2.09; G 1.41; Q 1.91; D 1.37; N 1.25; A 1.7; K 1.45; V 2.13; H 2.4; I 1.9; F 2.49; S 1.41; P 3.64
